Data: publication PMC6275497, “Folding pathway of an Ig domain is conserved on and off the ribosome” (Proceedings of the National Academy of Sciences of the …, 2018)

Experiments:
ribosomal protein uL24 = ribosomal protein uL24 (E. coli (endogenous in E. coli KC6), UniProt P60624 1-104); test: cryo-EM structure; TnaC-stalled I27[L = 35] ribosome-nascent chain complexes purified from E. coli by the His tag; average resolution 3.2 Å, I27 density ~4.5- to 9-Å; rigid-body fit of PDB 1TIT and PDB 4UY8, uL24 β hairpin remodeled; conditions: both partners purified
ribosomal protein uL29 = ribosomal protein uL29 (E. coli (endogenous in E. coli KC6), UniProt P0A7M6 1-63); test: as above; conditions: both partners purified

B1: N-terminally His-tagged I27-TnaC[L = 35] nascent chain (titin I27 domain, linker, TnaC arrest peptide), stalled on the ribosome (other)
chain: MDMGHHHHHHHHDYDIPTTLEVLFQGPGTLIEVEKPLYGVEVFVGETAHFEIELSEPDVHGQWKLKGQPLAASPDCEIIEDGKKHILILHNCQLGMTGEVSFQAANTKSAANLKVKELSGSGSGSGGPNILHISVTSKWFNIDNKIVDHRP
modifications: nascent chain held as peptidyl-tRNA on the stalled ribosome
notes: N-terminal leader of the construct as printed; it holds the 8X His tag itself; titin I27 Ig domain, 89-residue construct; numbers count on: the I27 domain itself (L1-L89); linker between I27 and the TnaC arrest peptide; TnaC arrest peptide; also called I27[L = 35]; not shown: His8, N-terminal, kept
B1: binds (ribosomal protein uL24); binds (ribosomal protein uL29).
